# Test results: publication PMC4767726, “Molecular Probing of the HPV-16 E6 Protein Alpha Helix Binding Groove with Small Molecule Inhibitors” (PLoS ONE, 2016)
# T1: E6AP-BAP (aa 371-440) fusion protein (UniProt Q05086 371-440)
# T1 sequence (looked up): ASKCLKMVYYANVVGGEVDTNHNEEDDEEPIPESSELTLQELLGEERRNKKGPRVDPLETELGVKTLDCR
# Columns and labels:
# [1] = target: MBP-E6 F2V (human papillomavirus type 16); assay: bead-based binding assay on filter plates (alkaline phosphatase luminescence); MBP-E6 held on amylose beads at indicated concentrations or 0.67 uM; E6AP-BAP added at 50 nM, 1-3 h, room temperature; 400 mM NaCl, 50 mM Tris-HCl pH 6.8, 0.1% milk, 1 mM DTT; amylose bead control subtracted
# [2] = target: E6AP-BAP (aa 371-440) fusion protein (UniProt Q05086)
# [3] = target: T1, E6AP-BAP (aa 371-440) fusion protein; assay: cell-based or functional assay
molecule,measurement,setting,value
E6AP-BAP (aa 371-440) fusion protein (from UniProt Q05086 371-440) (domain or fragment),percent of the wild-type binding capacity (% of wild type),[1],70
MBP-E6 R55A (natural protein),"p53 in vitro degradation by purified MBP-E6 in rabbit reticulocyte lysate, 2 h; activity against wild type",[2],50%
MBP-E6 R102A (natural protein),"p53-luciferase reporter level in C33A cells transfected with HPV-16 E6 expression vector (untagged, pLXSN), EC50 in ng of DNA",[2],172 ng
same,"p53 in vitro degradation, 3 h incubation, 0.25 and 1 uM MBP-E6 R102A; decrease of p53",[2],50%
"MBP-HPV-16 E6 (wild-type) (natural protein, human papillomavirus type 16, UniProt P03126 1-158, looked up) MHQKRTAMFQDPQERPRKLPQLCTELQTTIHDIILECVYCKQQLLRREVYDFAFRDLCIVYRDGNPYAVCDKCLKFYSKISEYRHYCYSLYGTTLEQQYNKPLCDLLIRCINCQKPLCPEEKQRHLDKKQRFHNIRGRWTGRCMSCCRSSRTRRETQL","p53-luciferase reporter level in C33A cells transfected with HPV-16 E6 expression vector (untagged, pLXSN), EC50 in ng of DNA",[3],32 ng
